According to the DeepSol protein solubility set:

Test: soluble on expression in E. coli; label from the status in PepcDB or PDB records

**Q.** Which “soluble on expression in E. coli” value does the source give for “MRSRPTEGNLLVSIGIPFLNPGPYLDLAVRSVFAQTYLNWELILVDDGSTDGSYERAVAIQDPRVRVLRDGQNKGLPARLNEIVRLAKGELVARMDADDAMHPLRLEKQVGFLQANPELDGVTTGAYLIDAEDRPIALLPGRQPSAQEVLARGGFLHPSLLARKSWFEAHPYSLDYPRAEDRELFVRTFKTSRLHVLSEPLYFYRWFGVPRGKTLRIGYRSERKVMWKYGPNLVGWGPSLRLIALSFGKELLTWFLEWTHLEKGFQTRRAFQPLLEMDQREALRTLKVIRETCVPGWDLEHHHHHH” here?
**A.** not soluble

**Q.** For “MGSDKIHHHHHHMRVKYPSIPHLPWSPGLQNDDRRITSLSGFIGKEVVVTEKLDGENTSLYRDDLHARSLDMRPHPSRTWVKAERGRVAHDIPLGWRFCGENVYAVHSLKYDDLDGYFYLFSVWDDLNVSRPWDEVRGWAERLSLPTPRELYRGPWDEAALQALDPDPERMEGYVVRVTAAIPYADFGRKVAKWVRRGHVQTDQHWLSQPVEPNGLKRQEQS”, which “soluble on expression in E. coli” value is on record?
**A.** not soluble

**Q.** For “KDIGSLTLALEQLKEKLRLKGYFDEENKLPKPHFPKRVAVITSQNSAAWADMKKIASKRWPMCELVCINTLMQGEGCVQSVVESIVYADSFHDTK”, which “soluble on expression in E. coli” value is on record?
**A.** not soluble

**Q.** Which “soluble on expression in E. coli” value does the source give for “MGSDKIHHHHHHQGPQCNHAQLPFQQMTPVPYDSTPYSPQDTMPEQCSNPEVEAYIADWEAGKIDFTTIKANDSIAADQRFCKTLDDDGNISEVKDCDRTKSPVGYIWKELSDSPVVIGITDGGKSDHAPHFHGQPECYYVVNGEGQTLADNQFKKLGTGQYFYIPGATIHNTPIMSEKGLGVIYWYPNNAHFDGFKYYWRKDVKNLRVAEEAFDRVDAIRKRDLNLGPYGTNEAFFKK” here?
**A.** not soluble

**Q.** For “MGSDKIHHHHHHMIRINVVGFKGGSGKSTISYHLARQLSEYYNVVLVDKTYSGTISRIYNINNNIFSFLKGRNELFYINKNNLSVINMSFLNEDDLNGIDFNAFKYLYSKLTKDSDIVIVDHSSIPHDFATEIELKAFMENFRNFAYNTVLVLSGDEIPIKKYLNYTVLLNDFVKNYAEKILGISLPTDVKFLKIVAVIINKILKGQESKLEEFIRGDEILQRSARFIIPYYLSLTQRHFKDIDPPKEISDITRYILDFLREPTSIL”, which “soluble on expression in E. coli” value is on record?
**A.** not soluble

**Q.** For “MGSDKIHHHHHHMLLTIDDVLTQEELAIARSMLARSAWVSGLVTAGTQAAQVKNNQQVQENDPQIVNLRRLVLGALNRNALFFTATLPEKIVPPFFNRYSGETNHYGFHVDNAMRLLPDGSGYVRTDVSATLFLSDPQEYDGGELVINDTFGQHGVKLQAGSMVIYPSSSIHQVTPVTRGERLACFMFIQSMVRNPDQRRLLYEMDMALLQLRQNIGETPAVVSLTGTYHNLLRQWADS”, which “soluble on expression in E. coli” value is on record?
**A.** not soluble

**Q.** Which “soluble on expression in E. coli” value does the source give for “MPEEESIDIKFRLYDGSDIGPFRYSAASTVDFLKQRVVSDWPKGKTVVPKGINEVKLISSGKILENNKTVGQCKTPFGDIAGGVIVMHVVVQPSLAKSKTEKKVDKAPKAVICTCTIL” here?
**A.** soluble

**Q.** With “MEKYEELFARIKEKAKLIDEKIFELIPEKDPRVLYEAARHYPLAGGKRVRPFVVLTSTEAVGGDPLRAIYPAVAIELIHNYSLVHDDIMDMDETRRGKPTVHRIWGVNMAILAGDLLFSKAFEAVARAEIPPEKKARVLEVIVKASNELCEGQARDLEFEKKSTVTIEEYMEMISGKTGALFEASAKVGGIIGTDNEEYIKALSSWGRNVGIAFQIWDDVLDLIADEKKLGKPVGSDIRKGKKTLIVAHFFENADEKDKQRFLKIFGKYAGDVKGRGIIEEDIKSDVMEAIDLLKKYGSIDYAAEIAKDMIKKANEALRILPKSKARMDLELLAKFIVEREY” as the sequence, how does the “soluble on expression in E. coli” value read?
**A.** soluble

**Q.** For “GSHMLESSAEESLAYREDDLRGRLGKVITAVPVDGFGEVVIEGIGGTISKSAVSFDNQQISYGTTVLVVDINNGVLSVTPHEPI”, which “soluble on expression in E. coli” value is on record?
**A.** soluble

**Q.** With “YICRLPAEEIGFPEFYPRISRSMKSIKRPNLIYPAGKGLAVHIYPDKEDVRNYYIPIEPCLFQKLDSMLEEVEKLLIDVIHDQEINTNDPEEKKKLLVKALEKTCD” as the sequence, how does the “soluble on expression in E. coli” value read?
**A.** not soluble

**Q.** Which “soluble on expression in E. coli” value does the source give for “GPGGSPGGLQKRHARVTVKYDRRELQRRLDVEKWIDGRLEELYRGREADMPDEVNIDELLELESEEERSRKIQGLLKSCTNPTENFVQELLVKLRGLHK” here?
**A.** soluble

**Q.** With “MRHRVKKKHFDRTKEQRLALYRSLARALIFDERIETTVERAKALRSFIEPLVELAKEGTLHARRQALSRLPDKPAIKKLFEDIAPRFEGRNGGYVRIIKLPYRRRGDGAEMAIIEWVELEHHHHHH” as the sequence, how does the “soluble on expression in E. coli” value read?
**A.** not soluble

**Q.** Which “soluble on expression in E. coli” value does the source give for “MGSDKIHHHHHHMELHIRLEGRKGLADQLYQQLRDGIDSGHLAAGSQLPPTRLLAEQLGVSRKTVAEAYSRLTYDNLLSGVVGRGTFVTPRHPLRSNESATLPLAGAASLERWQQRATVLSQRQLQAPSRYDFVGGASSKAQFPFDQWRSCLNYALRRSQRHPERQFPAQGLPELREAIAHHIAYSRGVHCSAADLLVCNGAQQALDLIARVLVEPGCQVAMEDPGYPPARQLFLALGARLQSVPVDDEGLCVEQIADGTRLIYVTPSHQFPLGMPMSEPRRHALLARAAELGALIIEDDYDCEFRYHGPASDALQRLDRHGLVAYVGTFSKTLLPELRLGYAVLPPAVLQAACVAKHLSDWHSPTLLQWALARFLGEGHLNKHIRRCHEVYSARRERILARLGGDLAPWFSAIPASAGFHLSALATPGVDVELLANLARKVEVGLYSLAPFFSEAPVRPGLLMGFGAIELLDIDPALDRVRDTLQRLS” here?
**A.** not soluble

**Q.** For “MGSEFSIDQKRYLEGFATGVTAARAARGSLPAGSAASPSGPDAIHHQAQDRVTASGKKLNDQEKWKREQHPFDAYARLKQQAKDNAAPKPADNFRWRYYGLFYVAPAQTSYMCRLRIPNGILTSWQMAGLAYLADTLADGYAHVTTRANLQMREIAPKDAVQLLQGIESLGLWARGSGADNIRNVTGSATAGIDPQELIDTRAYARDWHFYILNERALFGLPRKFNVAFDGGGLIPTLEDTNDIAFQAVTIGDGHGVAPGVYFRLALGGITGHKDFARDTGVIVAPDEATEVADAIVRVFIEHGDRTDRNKARLKYVLDAFGFDKYLELVEDKLGRKLIRVPAEAAAPRPAQDRAAHLGVHPQQQAGMNWIGVRLATGHLTSVQMRGLAEIARSFGDGDLRLTVWQNLLISGVPDARVTDATAAIEALGLAITASPLRAGLIACTGASGCRFAAAHTKETAEAIAQYCEPRVPLDTPINIHLTGCHNSCAQHFISDIGLIGAKVAVSDEDSVEGFHIHVGGGFGVDAAIGTEVLRDVKQDDAPRVIERMLQTYLARRASPAETFLAFVRRQDAAALQQLFAYEQSPETVA”, which “soluble on expression in E. coli” value is on record?
**A.** not soluble

**Q.** With “MGWPFIGETISFFKPHRSDSIGTFLQQRVSRYGKVFKSNICGGKAVVSCDQELNMFILQNEGKLFTSDYPKAMHDILGKYSLLLATGEIHRKLKNVIISFINLTKSKPDFLHCAENLSISILKSWKNCREVEFHKEVKIFTLSVMVNQLLSIKPEDPARLYVLQDFLSYMKGFISLPIPLPGTGYTNAIKVRSNRNIHQNAIIEDMNNAIREEDFLDSIISNEDEEHAAIRAKKGDGELLNWEDYQKMEFTQCVISEALRCGNIVKTVHRKATHDIKFNEYVIPKGWKVFPIFTAVHLDPSLHENPFEFNPMRWTKTTAFGGGVRVCPGGELGKLQIAFFLHHLVLSYRWKIKSDEMPIAHPYVEFKRGMLLEIEPTKFLED” as the sequence, how does the “soluble on expression in E. coli” value read?
**A.** soluble

**Q.** Which “soluble on expression in E. coli” value does the source give for “MSFDIAKYPTLALVDSTQELRLLPKESLPKLCDELRRYLLDSVSRSSGHFASGLGTVELTVALHYVYNTPFDQLIWDVGHQAYPHKILTGRRDKIGTIRQKGGLHPFPWRGESEYDVLSVGHSSTSISAGIGIAVAAEKEGKNRRTVCVIGDGAITAGMAFEAMNHAGDIRPDMLVVLNDNEMSISENVGALNNHLAQLLSGKLYSSLREGGKKVFSGVPPIKELLKRTEEHIKGMVVPGTLFEELGFNYIGPVDGHDVLGLITTLKNMRDLKGPQFLHIMTKKGRGYEPAEKDPITFHAVPKFDPSSGCLPKSSGGLPSYSKIFGDWLCETAAKDNKLMAITPAMREGSGMVEFSRKFPDRYFDVAIAEQHAVTFAAGLAIGGYKPIVAIYSTFLQRAYDQVLHDVAIQKLPVLFAIDRAGIVGADGQTHQGAFDLSYLRCIPEMVIMTPSDENECRQMLYTGYHYNDGPSAVRYPRGNAVGVELTPLEKLPIGKGIVKRRGEKLAILNFGTLMPEAAKVAESLNATLVDMRFVKPLDETLILEMAASHEALVTVEENAIMGGAGSGVNEVLMAHRKPVPVLNIGLPDFFIPQGTQEEMRAELGLDAAGMEAKIKAWLA” here?
**A.** not soluble

**Q.** Which “soluble on expression in E. coli” value does the source give for “AHHHHHHGSNRKLDEFLGSNDPPATKEENQKVKKKQRLRATNLDEFLPEDHINFFKNLRIGSKKIARKKIEEL” here?
**A.** not soluble
